Where a SMILES comes first, the peptide text is derived from it. [ ]: non-standard residue; d: D form. The star is where a group is joined. X2 = COc1cc2cc(c1Cl)N(C)C(=O)C[C@H](OC(=O)[C@H](C)N(C)C(=O)CCSSCCC(=O)NCCOCCOCCn1nnc3c1CC[C@H]1[C@@H](CC3)[C@@H]1COC(=O)*)[C@]1(C)O[C@H]1[C@H](C)[C@@H]1C[C@@](O)(NC(=O)O1)[C@H](OC)/C=C/C=C(\C)C2; X1 = COc1cc2cc(c1Cl)N(C)C(=O)C[C@H](OC(=O)[C@H](C)N(C)C(=O)CCSSCCC(=O)*)[C@]1(C)O[C@H]1C(C)[C@@H]1C[C@@](O)(NC(=O)O1)[C@H](OC)/C=C/C=C(\C)C2; d(hArg(Et2)) = CCN=C(NCC)NCCCC[C@@H](N)C(=O)O; dPhe(4-Cl) = N[C@H](Cc1ccc(Cl)cc1)C(=O)O; d2Nal = N[C@H](Cc1ccc2ccccc2c1)C(=O)O; d3Pal = N[C@H](Cc1cccnc1)C(=O)O
Assays:
[1] = target: T1, LHRHR, also known as GnRHR (Homo sapiens, UniProt P30968); experiment: Radioligand binding assay ([125I]-[D-Trp6]-LHRH displacement)
T1 sequence (P30968 1-328): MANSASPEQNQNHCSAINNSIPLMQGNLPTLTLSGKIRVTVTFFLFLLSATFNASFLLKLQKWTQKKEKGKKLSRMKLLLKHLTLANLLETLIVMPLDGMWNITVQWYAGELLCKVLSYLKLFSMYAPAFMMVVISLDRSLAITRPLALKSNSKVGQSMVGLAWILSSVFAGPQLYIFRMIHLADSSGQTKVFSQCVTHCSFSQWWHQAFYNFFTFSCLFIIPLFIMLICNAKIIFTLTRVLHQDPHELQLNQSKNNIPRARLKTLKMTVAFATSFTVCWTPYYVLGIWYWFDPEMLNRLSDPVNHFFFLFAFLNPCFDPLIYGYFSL
Experimental: An amount of 2 μg of a purified membrane with LHRHR, also known as GnRHR, was incubated with 0.18 nM [125I]-[D-Trp6]-LHRH and compounds of interest in the incubation buffer (50 mM HEPES, pH 7.4, 5 mM MgCl2, 1 mM CaCl2, and 0.2% BSA). The reaction mixtures were incubated for 1 h at 25° C. and then were transferred to a 96-well GF/B filter plate (Millipore Corp., Billerica, MA, USA), which were terminated by manifold filtration and washed with a wash buffer (50 mM HEPES, pH 7.4, and 100 mM NaCl) for six times. The radioactivity bound to the filter was measured by a Topcount® system (PerkinElmer Inc., Waltham, MA, USA). IC50 values were determined by the concentration of a compound required to inhibit 50% of the specific binding of [125I]-[D-Trp6]-LHRH and calculated by nonlinear regression (GraphPad Software, San Diego, CA, USA). The design of these drug conjugates is to actively targeting LHRH-receptor at tumor site and facilitate drug conjugate accumulation in situ. Therefore, selective and strong binding of the synthetic peptide ligand with the receptor is important to allow enrichment of these conjugates, followed by release of the drug payload in the tumor microenvironment.
Compounds of the invention have a binding as low as 0.17 nM.

[2] = test system: HCC1806 triple negative breast cancer; experiment: In vivo anti-tumor activity in triple-negative breast HCC1806 tumor model; parameters: species or system immunodeficient nude mice; details: 1 mg/kg to 2.5 mg/kg, every other week, once a week, or twice a week
Experimental: In vivo anti-tumor activity of Compound 16 was evaluated in triple-negative breast HCC1806 tumor model. HCC1806 cells were suspended with RPMI 1640 medium (phenol red free) and Matrigel™ in 1:1 ratio, and implanted subcutaneously (1×10^6 cells/flank) into the left flank of the immunodeficient nude mice. The tumor volume in mm^3 was calculated by the formula: Volume=(length×width^2)/2. Tumor-bearing mice were randomized (n=8 per group) when the average tumor volume was approximately at 210 mm^3 on day 10 after inoculation. Compound 16 was dissolved in DMA, cremorphor and 5% dextrose solution (1:2:27, v/v/v). Tumor-bearing mice were intravenously administered once weekly (qw) or bi-weekly (b2w) with multiple doses of vehicle control (5 mL/kg) and DBPR376 (2.5 mg/kg). Tumor size and body weight of each animal were measured twice weekly during the study period.
Compounds 8, 9, 11, 14, 16, 25, 26, and 27 were evaluated following the procedure described above.

[3] = In vivo pharmacokinetic profile, mouse single IV dose; details: for Vss (I/kg) / clearance / AUC(0-t): Mouse IV, dose 5 mg/kg; for clearance / AUC(0-t): in vivo; for AUC(0-t): read-out: AUC(0-24 hr); for AUC coverage: single intravenous dose
Experimental: Pharmacokinetic properties of compounds of the invention were measured following the procedures described in Liu et al., Bioconjugate Chem. 2017, 28, 7, 1878-1892.

Q: What does the source list for `COc1cc2cc(c1Cl)N(C)C(=O)C[C@H](OC(=O)[C@H](C)N(C)C(=O)CCSSCCC(=O)NCCCC[C@@H](NC(=O)[C@H](Cc1ccc(O)cc1)NC(=O)[C@H](CO)NC(=O)[C@@H](Cc1cccnc1)NC(=O)[C@@H](Cc1ccc(Cl)cc1)NC(=O)[C@@H](Cc1ccc3ccccc3c1)NC(C)=O)C(=O)N[C@@H](CC(C)C)C(=O)N[C@@H](CCCNC(=N)N)C(=O)N1CCC[C@H]1C(=O)N[C@H](C)C(N)=O)[C@]1(C)O[C@H]1C(C)[C@@H]1C[C@@](O)(NC(=O)O1)[C@H](OC)/C=C/C=C(\C)C2` (stereo partly shown) [Compound 8] (Ac-[d2Nal][dPhe(4-Cl)][d3Pal]SY[dK](X1)LRP[dA]-NH2)?
A: IC50 [1]: 0.1 to 1 nM; inhibition of in vivo tumor growth [2]: effectively inhibited; Vss (I/kg) [3]: 0.25 I/kg; clearance [3]: 1.6 mL/min/kg; AUC(0-t) [3]: 55100 ng·h/mL; AUC coverage [3]: extensive AUC coverage

Q: With `COc1cc2cc(c1Cl)N(C)C(=O)C[C@H](OC(=O)[C@H](C)N(C)C(=O)CCSC(=O)c1ccc(CN(CCOCCOCCn3nnc4c3CC[C@@H]3[C@H](CC4)[C@H]3COC(=O)N(CCCC[C@H](NC(=O)[C@H](CC(C)C)NC(=O)[C@@H](Cc3ccc(NC(N)=O)cc3)NC(=O)[C@H](Cc3ccc(NC(=O)[C@@H]4CC(=O)NC(=O)N4)cc3)NC(=O)[C@H](CO)NC(=O)[C@@H](Cc3cccnc3)NC(=O)[C@@H](Cc3ccc(Cl)cc3)NC(=O)[C@@H](Cc3ccc4ccccc4c3)NC(C)=O)C(=O)N3CCC[C@H]3C(=O)N[C@H](C)C(N)=O)C(C)C)C(=O)C3(c4ccc(Cl)cc4)CCCCC3)cc1)[C@]1(C)O[C@H]1[C@H](C)[C@@H]1C[C@@](O)(NC(=O)O1)[C@H](OC)/C=C/C=C(\C)C2` [Compound 9] as the molecule, how does the “inhibition of in vivo tumor growth” value [2] read?
A: effectively inhibited

Q: And the “Vss (I/kg)” value [3]?
A: 0.2 I/kg

Q: What about the clearance [3] of the same molecule?
A: 6.7 mL/min/kg

Q: And the AUC(0-t) [3]?
A: 12500 ng·h/mL

Q: And the AUC coverage [3]?
A: extensive AUC coverage

Q: What does the source list for `CCNC(=NCCCC[C@@H](NC(=O)[C@H](CC(C)C)NC(=O)[C@@H](CCCCNC(=O)OC[C@H]1[C@@H]2CCc3nnn(CCOCCOCCN(Cc4ccc(C(=O)SCCC(=O)N(C)[C@@H](C)C(=O)O[C@H]5CC(=O)N(C)c6cc(cc(OC)c6Cl)C/C(C)=C/C=C/[C@@H](OC)[C@@]6(O)C[C@H](OC(=O)N6)[C@@H](C)[C@@H]6O[C@@]56C)cc4)C(=O)C4(c5ccc(Cl)cc5)CCCCC4)c3CC[C@@H]21)NC(=O)[C@H](Cc1ccc(O)cc1)NC(=O)[C@H](CO)NC(=O)[C@@H](Cc1cccnc1)NC(=O)[C@@H](Cc1ccc(Cl)cc1)NC(=O)[C@@H](Cc1ccc2ccccc2c1)NC(C)=O)C(=O)N1CCC[C@H]1C(=O)N[C@H](C)C(N)=O)NCC` [Compound 11]?
A: inhibition of in vivo tumor growth [2]: effectively inhibited; Vss (I/kg) [3]: 0.1 I/kg; clearance [3]: 4 mL/min/kg; AUC(0-t) [3]: 21000 ng·h/mL

Q: What does the source list for `CCNC(=NCCCC[C@@H](NC(=O)[C@H](CC(C)C)NC(=O)[C@@H](CCCCNC(=O)CCSSCCC(=O)N(C)[C@@H](C)C(=O)O[C@H]1CC(=O)N(C)c2cc(cc(OC)c2Cl)C/C(C)=C/C=C/[C@@H](OC)[C@@]2(O)C[C@H](OC(=O)N2)C(C)[C@@H]2O[C@@]12C)NC(=O)[C@H](Cc1ccc(O)cc1)NC(=O)[C@H](CO)NC(=O)[C@@H](Cc1cccnc1)NC(=O)[C@@H](Cc1ccc(Cl)cc1)NC(=O)[C@@H](Cc1ccc2ccccc2c1)NC(C)=O)C(=O)N1CCC[C@H]1C(=O)N[C@H](C)C(N)=O)NCC` (stereo partly shown) [Compound 14] (Ac-[d2Nal][dPhe(4-Cl)][d3Pal]SY[dK](X1)L[d(hArg(Et2))]P[dA]-NH2)?
A: IC50 [1]: 1 to 10 nM; inhibition of in vivo tumor growth [2]: effectively inhibited; Vss (I/kg) [3]: 0.2 I/kg; clearance [3]: 0.9 mL/min/kg; AUC(0-t) [3]: 88300 ng·h/mL; AUC coverage [3]: extensive AUC coverage

Q: With `COc1cc2cc(c1Cl)N(C)C(=O)C[C@H](OC(=O)[C@H](C)N(C)C(=O)CCSC(=O)c1ccc(CN(CCOCCOCCn3nnc4c3CC[C@H]3[C@@H](CC4)[C@@H]3COC(=O)NCCCC[C@@H](NC(=O)[C@H](Cc3ccc(O)cc3)NC(=O)[C@H](CO)NC(=O)[C@@H](Cc3cccnc3)NC(=O)[C@@H](Cc3ccc(Cl)cc3)NC(=O)[C@@H](Cc3ccc4ccccc4c3)NC(C)=O)C(=O)N[C@@H](CC(C)C)C(=O)N[C@@H](CCCNC(=N)N)C(=O)N3CCC[C@H]3C(=O)N[C@H](C)C(N)=O)C(=O)C3(c4ccc(Cl)cc4)CCCCC3)cc1)[C@]1(C)O[C@H]1[C@H](C)[C@@H]1C[C@@](O)(NC(=O)O1)[C@H](OC)/C=C/C=C(\C)C2` [Compound 16] as the molecule, how does the “inhibition of in vivo tumor growth” value [2] read?
A: effectively inhibited

Q: And the “Vss (I/kg)” value [3]?
A: 0.5 I/kg

Q: And the clearance [3]?
A: 15.5 mL/min/kg

Q: What about the AUC(0-t) [3] of the same molecule?
A: 4860 ng·h/mL

Q: Which “inhibition of in vivo tumor growth” value [2] does the source give for `COc1cc2cc(c1Cl)N(C)C(=O)C[C@H](OC(=O)[C@H](C)N(C)C(=O)CCSSCCC(=O)NCCOCCOCCn1nnc3c1CC[C@H]1[C@@H](CC3)[C@@H]1COC(=O)NCCCC[C@@H](NC(=O)[C@H](Cc1ccc(O)cc1)NC(=O)[C@H](CO)NC(=O)[C@@H](Cc1cccnc1)NC(=O)[C@@H](Cc1ccc(Cl)cc1)NC(=O)[C@@H](Cc1ccc3ccccc3c1)NC(C)=O)C(=O)N[C@@H](CC(C)C)C(=O)N[C@@H](CCCNC(=N)N)C(=O)N1CCC[C@H]1C(=O)N[C@H](C)C(N)=O)[C@]1(C)O[C@H]1[C@H](C)[C@@H]1C[C@@](O)(NC(=O)O1)[C@H](OC)/C=C/C=C(\C)C2` [Compound 25] (Ac-[d2Nal][dPhe(4-Cl)][d3Pal]SY[dK](X2)LRP[dA]-NH2) here?
A: effectively inhibited

Q: Which “inhibition of in vivo tumor growth” value [2] does the source give for `CCNC(=NCCCC[C@@H](NC(=O)[C@H](CC(C)C)NC(=O)[C@@H](CCCCNC(=O)OC[C@H]1[C@@H]2CCc3nnn(CCOCCOCCNC(=O)CCSSCCC(=O)N(C)[C@@H](C)C(=O)O[C@H]4CC(=O)N(C)c5cc(cc(OC)c5Cl)C/C(C)=C/C=C/[C@@H](OC)[C@@]5(O)C[C@H](OC(=O)N5)[C@@H](C)[C@@H]5O[C@@]45C)c3CC[C@@H]21)NC(=O)[C@H](Cc1ccc(O)cc1)NC(=O)[C@H](CO)NC(=O)[C@@H](Cc1cccnc1)NC(=O)[C@@H](Cc1ccc(Cl)cc1)NC(=O)[C@@H](Cc1ccc2ccccc2c1)NC(C)=O)C(=O)N1CCC[C@H]1C(=O)N[C@H](C)C(N)=O)NCC` [Compound 26] (Ac-[d2Nal][dPhe(4-Cl)][d3Pal]SY[dK](X2)L[d(hArg(Et2))]P[dA]-NH2) here?
A: effectively inhibited

Q: What does the source list for `COc1cc2cc(c1Cl)N(C)C(=O)C[C@H](OC(=O)[C@H](C)N(C)C(=O)CCSC(=O)c1ccc(CN(CCOCCOCCn3nnc4c3CC[C@H]3[C@@H](CC4)[C@@H]3COC(=O)NCCCC[C@@H](NC(=O)[C@H](Cc3ccc(O)cc3)NC(=O)[C@H](CO)NC(=O)[C@@H](Cc3cccnc3)NC(=O)[C@@H](Cc3ccc(Cl)cc3)NC(=O)[C@@H](Cc3ccc4ccccc4c3)NC(C)=O)C(=O)N[C@@H](CC(C)C)C(=O)N[C@H](CCCNC(=N)N)C(=O)N3CCC[C@H]3C(=O)N[C@H](C)C(N)=O)C(=O)C3(c4ccc(Cl)cc4)CCCCC3)cc1)[C@]1(C)O[C@H]1[C@H](C)[C@@H]1C[C@@](O)(NC(=O)O1)[C@H](OC)/C=C/C=C(\C)C2` [Compound 27]?
A: inhibition of in vivo tumor growth [2]: effectively inhibited; Vss (I/kg) [3]: 0.1 I/kg; clearance [3]: 6.4 mL/min/kg; AUC(0-t) [3]: 15900 ng·h/mL

Reference: patent US20250121078A1, “PEPTIDE DRUG CONJUGATES AND THEIR USES” (priority 2023, published 2025)
